Reference: US20190134153A1, “IMMUNOMODULATORY EFFECT OF INHALED KINASE INHIBITOR PEPTIDES IN LUNG” (MOERAE MATRIX, INC., priority 2017, published 2019)

Columns and labels:
Assay in all cases: Kinase Profiling Assay
Assay type in all cases: biochemical
Conditions in all cases: 100 μM
CK1δ(h) = CK1δ(h) (Homo sapiens, UniProt P48730)
EphA5(h) = EphA5(h) (Homo sapiens, UniProt P54756)
PKD2(h) = target: T1, PKD2(h) (Homo sapiens, UniProt Q9BZL6)
T1 sequence (Q9BZL6 1-878): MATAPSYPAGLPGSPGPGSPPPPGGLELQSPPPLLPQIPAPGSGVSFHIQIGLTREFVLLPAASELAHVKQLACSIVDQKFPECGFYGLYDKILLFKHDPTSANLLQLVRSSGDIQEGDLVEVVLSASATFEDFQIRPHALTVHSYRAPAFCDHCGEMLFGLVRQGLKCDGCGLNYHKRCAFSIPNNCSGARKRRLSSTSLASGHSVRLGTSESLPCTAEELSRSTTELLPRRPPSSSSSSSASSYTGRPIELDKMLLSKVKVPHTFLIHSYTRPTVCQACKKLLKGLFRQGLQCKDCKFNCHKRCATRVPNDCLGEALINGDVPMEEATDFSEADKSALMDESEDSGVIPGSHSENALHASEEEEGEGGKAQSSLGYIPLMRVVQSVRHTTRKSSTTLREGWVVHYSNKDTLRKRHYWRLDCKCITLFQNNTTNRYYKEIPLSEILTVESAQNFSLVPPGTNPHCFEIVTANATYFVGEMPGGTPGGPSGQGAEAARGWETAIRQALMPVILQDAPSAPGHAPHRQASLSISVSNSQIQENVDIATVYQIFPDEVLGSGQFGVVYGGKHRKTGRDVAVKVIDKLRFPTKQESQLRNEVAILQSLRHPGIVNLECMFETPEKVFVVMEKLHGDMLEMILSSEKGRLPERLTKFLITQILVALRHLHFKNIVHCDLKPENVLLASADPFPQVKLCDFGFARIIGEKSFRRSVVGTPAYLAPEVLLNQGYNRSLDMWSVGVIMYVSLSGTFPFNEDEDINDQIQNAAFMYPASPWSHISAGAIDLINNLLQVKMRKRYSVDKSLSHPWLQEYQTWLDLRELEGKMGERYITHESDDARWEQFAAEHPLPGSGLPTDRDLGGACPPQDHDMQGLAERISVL

PTK5(h) = PTK5(h) (Homo sapiens, UniProt P42685)
Sequence of PTK5(h) (P42685 whole entry): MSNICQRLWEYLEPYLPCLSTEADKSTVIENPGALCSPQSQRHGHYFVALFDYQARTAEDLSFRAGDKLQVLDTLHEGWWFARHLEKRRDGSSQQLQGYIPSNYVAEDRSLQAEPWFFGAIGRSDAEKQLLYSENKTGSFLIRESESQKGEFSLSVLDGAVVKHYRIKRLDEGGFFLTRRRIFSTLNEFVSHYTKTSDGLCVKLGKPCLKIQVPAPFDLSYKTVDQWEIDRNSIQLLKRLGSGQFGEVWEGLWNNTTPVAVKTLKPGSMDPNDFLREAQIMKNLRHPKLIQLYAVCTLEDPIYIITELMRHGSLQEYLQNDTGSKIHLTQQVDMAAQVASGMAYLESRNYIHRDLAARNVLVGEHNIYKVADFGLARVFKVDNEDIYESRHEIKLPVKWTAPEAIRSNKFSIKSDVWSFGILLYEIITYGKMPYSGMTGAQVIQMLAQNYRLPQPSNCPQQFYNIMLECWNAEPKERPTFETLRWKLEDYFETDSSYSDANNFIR

BTK(R28H)(h) = BTK(R28H)(h) (Homo sapiens, UniProt Q06187, R28H)
Sequence of BTK(R28H)(h) (Q06187 whole entry R28H): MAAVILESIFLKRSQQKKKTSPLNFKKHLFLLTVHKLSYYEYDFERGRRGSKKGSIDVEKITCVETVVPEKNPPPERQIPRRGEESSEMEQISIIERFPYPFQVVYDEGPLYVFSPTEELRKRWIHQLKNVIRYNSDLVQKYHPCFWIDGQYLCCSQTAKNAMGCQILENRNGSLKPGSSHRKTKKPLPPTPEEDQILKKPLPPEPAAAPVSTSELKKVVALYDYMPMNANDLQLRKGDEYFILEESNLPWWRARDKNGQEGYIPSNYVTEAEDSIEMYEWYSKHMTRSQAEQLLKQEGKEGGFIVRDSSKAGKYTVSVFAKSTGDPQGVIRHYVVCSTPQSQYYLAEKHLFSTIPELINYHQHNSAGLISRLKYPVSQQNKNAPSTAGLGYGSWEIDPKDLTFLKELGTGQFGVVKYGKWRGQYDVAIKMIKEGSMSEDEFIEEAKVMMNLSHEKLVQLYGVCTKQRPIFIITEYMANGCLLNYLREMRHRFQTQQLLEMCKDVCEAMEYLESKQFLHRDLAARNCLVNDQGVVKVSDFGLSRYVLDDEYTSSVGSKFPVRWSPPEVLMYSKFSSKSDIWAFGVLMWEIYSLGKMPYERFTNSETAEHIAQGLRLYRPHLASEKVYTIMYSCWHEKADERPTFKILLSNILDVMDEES

EphA3(h) = target: T2, EphA3(h) (Homo sapiens, UniProt P29320)
T2 sequence (P29320 21-983): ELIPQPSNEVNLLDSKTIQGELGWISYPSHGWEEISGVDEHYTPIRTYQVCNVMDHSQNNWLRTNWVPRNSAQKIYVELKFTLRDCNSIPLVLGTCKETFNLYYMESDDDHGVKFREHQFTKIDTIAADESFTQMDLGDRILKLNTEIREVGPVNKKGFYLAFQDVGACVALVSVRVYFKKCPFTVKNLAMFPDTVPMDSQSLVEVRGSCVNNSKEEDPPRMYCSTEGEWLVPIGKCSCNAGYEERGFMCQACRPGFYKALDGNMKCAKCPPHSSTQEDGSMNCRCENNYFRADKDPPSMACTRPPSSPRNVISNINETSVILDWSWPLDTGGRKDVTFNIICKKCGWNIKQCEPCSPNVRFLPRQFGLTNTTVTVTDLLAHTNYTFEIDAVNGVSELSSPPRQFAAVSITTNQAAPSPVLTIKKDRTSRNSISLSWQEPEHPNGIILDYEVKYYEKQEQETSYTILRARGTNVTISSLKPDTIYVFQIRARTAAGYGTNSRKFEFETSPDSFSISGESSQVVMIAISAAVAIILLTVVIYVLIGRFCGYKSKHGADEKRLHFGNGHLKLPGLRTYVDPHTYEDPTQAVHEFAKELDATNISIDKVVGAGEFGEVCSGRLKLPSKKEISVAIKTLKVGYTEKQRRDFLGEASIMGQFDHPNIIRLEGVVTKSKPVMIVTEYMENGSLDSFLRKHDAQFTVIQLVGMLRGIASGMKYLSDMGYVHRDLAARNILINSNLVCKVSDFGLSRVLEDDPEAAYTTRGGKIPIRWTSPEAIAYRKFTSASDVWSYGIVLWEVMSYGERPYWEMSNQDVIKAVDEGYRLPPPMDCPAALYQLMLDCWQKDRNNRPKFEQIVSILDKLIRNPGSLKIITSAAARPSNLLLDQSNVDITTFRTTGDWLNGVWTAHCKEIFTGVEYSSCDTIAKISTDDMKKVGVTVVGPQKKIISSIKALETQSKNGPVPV

IKKβ(h) = target: T3, IKKβ(h) (Homo sapiens, UniProt O14920)
T3 sequence (O14920 1-756): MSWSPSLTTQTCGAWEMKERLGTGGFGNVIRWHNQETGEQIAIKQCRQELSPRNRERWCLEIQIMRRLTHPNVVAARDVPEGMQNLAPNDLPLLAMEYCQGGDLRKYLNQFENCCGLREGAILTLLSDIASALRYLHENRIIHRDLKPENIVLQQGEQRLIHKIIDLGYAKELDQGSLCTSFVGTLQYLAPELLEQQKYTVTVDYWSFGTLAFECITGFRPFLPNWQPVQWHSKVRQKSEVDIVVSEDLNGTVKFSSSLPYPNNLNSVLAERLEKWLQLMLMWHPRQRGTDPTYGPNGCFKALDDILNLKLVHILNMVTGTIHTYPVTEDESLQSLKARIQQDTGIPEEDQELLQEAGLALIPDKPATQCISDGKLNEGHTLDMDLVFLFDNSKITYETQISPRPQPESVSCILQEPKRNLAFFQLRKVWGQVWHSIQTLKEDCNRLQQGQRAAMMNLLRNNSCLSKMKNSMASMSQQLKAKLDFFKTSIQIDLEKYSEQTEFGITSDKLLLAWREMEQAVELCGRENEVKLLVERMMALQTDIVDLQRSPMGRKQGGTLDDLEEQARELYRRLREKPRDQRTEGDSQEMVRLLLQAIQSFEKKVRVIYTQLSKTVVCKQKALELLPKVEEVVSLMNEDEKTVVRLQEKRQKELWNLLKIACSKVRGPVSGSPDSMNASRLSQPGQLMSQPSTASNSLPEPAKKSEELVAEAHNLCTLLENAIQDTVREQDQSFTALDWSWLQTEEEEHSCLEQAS

Sequence of EphA5(h) (P54756 25-1037): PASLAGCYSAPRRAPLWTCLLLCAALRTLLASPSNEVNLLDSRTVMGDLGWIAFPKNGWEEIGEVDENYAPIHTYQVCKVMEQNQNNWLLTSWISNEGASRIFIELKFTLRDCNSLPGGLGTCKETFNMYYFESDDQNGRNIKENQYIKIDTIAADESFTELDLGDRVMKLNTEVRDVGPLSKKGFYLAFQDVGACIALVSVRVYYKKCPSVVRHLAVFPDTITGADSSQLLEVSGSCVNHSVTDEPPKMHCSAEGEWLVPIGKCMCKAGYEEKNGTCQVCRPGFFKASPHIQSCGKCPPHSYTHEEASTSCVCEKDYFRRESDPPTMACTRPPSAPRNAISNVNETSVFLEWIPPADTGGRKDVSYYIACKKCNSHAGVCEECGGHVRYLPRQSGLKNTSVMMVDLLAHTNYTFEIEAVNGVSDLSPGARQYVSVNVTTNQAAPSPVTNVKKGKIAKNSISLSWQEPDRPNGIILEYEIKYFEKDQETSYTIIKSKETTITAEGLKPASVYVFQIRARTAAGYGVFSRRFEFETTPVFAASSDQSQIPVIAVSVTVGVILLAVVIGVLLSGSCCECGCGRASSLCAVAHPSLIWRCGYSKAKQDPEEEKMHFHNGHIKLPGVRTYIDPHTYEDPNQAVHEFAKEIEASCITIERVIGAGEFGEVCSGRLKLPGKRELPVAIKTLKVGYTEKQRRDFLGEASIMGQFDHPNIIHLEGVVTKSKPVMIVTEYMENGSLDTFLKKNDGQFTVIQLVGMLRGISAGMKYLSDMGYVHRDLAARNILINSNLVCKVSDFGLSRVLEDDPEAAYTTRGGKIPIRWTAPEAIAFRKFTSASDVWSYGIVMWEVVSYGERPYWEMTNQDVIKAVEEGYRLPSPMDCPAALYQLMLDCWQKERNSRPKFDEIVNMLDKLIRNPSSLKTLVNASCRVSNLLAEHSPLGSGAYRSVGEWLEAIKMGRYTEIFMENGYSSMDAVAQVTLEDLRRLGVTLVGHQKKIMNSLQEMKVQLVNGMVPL
Sequence of CK1δ(h) (P48730 whole entry): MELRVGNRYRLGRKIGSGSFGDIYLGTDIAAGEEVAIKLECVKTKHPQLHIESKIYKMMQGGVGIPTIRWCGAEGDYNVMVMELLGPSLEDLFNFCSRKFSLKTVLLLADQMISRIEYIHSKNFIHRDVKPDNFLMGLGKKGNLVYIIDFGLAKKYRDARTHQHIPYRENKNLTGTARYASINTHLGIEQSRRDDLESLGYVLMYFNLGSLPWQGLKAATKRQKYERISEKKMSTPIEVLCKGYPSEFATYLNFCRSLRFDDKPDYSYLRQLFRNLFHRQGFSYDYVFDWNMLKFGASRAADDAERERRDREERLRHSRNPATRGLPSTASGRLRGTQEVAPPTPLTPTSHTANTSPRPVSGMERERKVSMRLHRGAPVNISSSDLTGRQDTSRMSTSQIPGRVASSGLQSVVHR

Sequence | % activity (CK1δ(h)) [%] | % activity (EphA5(h)) [%] | % activity (PKD2(h)) [%] | % activity (PTK5(h)) [%] | % activity (BTK(R28H)(h)) [%] | % activity (EphA3(h)) [%] | % activity (IKKβ(h)) [%]
YARAAARQARAKALNRQLGVA [MMI-0200] | 92 | 123 | 78 | 108 | – | – | –
KAFAKLAARLYRKALARQLGVAA [MMI-0400] | 93 | 24 | 25 | 129 | 24 | 12 | 84
HRRIKAWLKKIKALARQLGVAA [MMI-0500] | 78 | 42 | 10 | 96 | 10 | 33 | 71
FAKLAARLYRKALARQLGVAA [MMI-0300] | 92 | 18 | 33 | 132 | 74 | 6 | 84
